From paper PMC10112228

Target: His-CcpA (nonphosphorylated) (Streptococcus pneumoniae D39) (UniProt A0A0H2ZQ65)
Experiment: EMSA

For “CTTTCTGTGAACGTGATTTTTTAAAACGTCTACTCATGATTAACACCTATACATTGAACATCTTACGATTATATCACTTTTTTACGGTAATGTCTACACCTTTTTTCACTATCTGCATCTTTAAGTATCTTAGTAGACTTCCCGCGAACCAAAAATATAGTAAAATGAAATAAGAACATGACAAATTGATCAGGACAGTCAAATCGTTTTCTAACAATATTTTAGAAGCAGATGTGTACTATTCTAGTTTCAATATAATATAGTACACAATGTGGTATAATCTTTTT (double strand) [Pcps2A (-250/+35)]”, the binding was “binds”.
